This is an account of results in patent publication US12331334B2.

The target in the assay is human C3 FRET peptide.

The substance “WT uPA with C122S - HSA (No PP) (enzyme)” came in with an Activity (nM EDANS/min/µL sample), expi293 supernatant on 40 µM human C3 FRET peptide (nM EDANS/min/µL sample) of 0.1.

“WT uPA with C122S-Fc (No PP) (Fc fusion)” came in with an Activity (nM EDANS/min/µL sample), expi293 supernatant on 40 µM human C3 FRET peptide (nM EDANS/min/µL sample) of 0.
